The test concerns the target T1, mature recombinant human cathepsin O2 (human, UniProt P43235 115-329).
T1 construct: also called parent enzyme; mature enzyme
T1 sequence: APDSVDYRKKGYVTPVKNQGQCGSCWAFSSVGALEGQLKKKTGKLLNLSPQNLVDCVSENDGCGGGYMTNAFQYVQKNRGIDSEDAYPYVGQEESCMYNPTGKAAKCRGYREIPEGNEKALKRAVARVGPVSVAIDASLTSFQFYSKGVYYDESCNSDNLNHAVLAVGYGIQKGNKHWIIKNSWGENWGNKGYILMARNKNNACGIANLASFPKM
The test is described as follows: inhibition of enzyme activity; assay not detailed in Example 3.

B1: propart of human cathepsin O2 (expressed separately in the pTrcHis vector, six-histidine metal binding domain) (other)
chain: LYPEEILDTHWELWKKTHRKQYNNKVDEISRRLIWEKNLKYISIHNLEASLGVHTYELAMNHLGDMTSEEVVQKMTGLKVPLSHSRSNDTLYIPEWEGR
notes: Tag removal is not mentioned; also called proregion; not shown: vector-encoded leader of pTrcHis with a series of six histidine residues
A word on the Ki: it is the dissociation constant of the complex between target and ligand, obtained from inhibition or displacement. For B1, the Ki is 0.1 nM.
